Reference: patent publication US7063946B2, “Methods, reagents, kits and apparatus for protein function analysis” (Meso Scale Technologies, LLC., priority 2001, dated 2006)
Each block holds one molecule with its values, some of them ahead of it.

Tests used:
[1] = biological target: T1, EGFR (Homo sapiens, UniProt P00533); assay: EGFR binding assay, bound EGFR detected by its tyrosine kinase activity towards pEY
T1 construct: autophosphorylated tyrosines (self-phosphorylated with ATP before use); purchased Sigma Chemical Co, MO
Procedure: Proteins were produced in an in vitro transcription and translation reaction using 40–100 ng of plasmid DNA. […] The unbound components of the reaction containing endogenous kinases were removed by three washes with TT-buffer (25 mM Tris-HCl buffer pH 7.4 and 0.004% Triton), two five minutes washings with high-salt wash buffer (25 mM Tris-HCl buffer pH 7.4, 0.004% Triton, 1M NaCl and 5 mM DTT) and 3 more washes with TT-buffer. […] The unbound EGFR was washed by 4 times washing with TT-buffer (25 mM Tris-HCl buffer pH 7.4 and 0.004% Triton). The amount of EGFR bound to the reticulocyte lysate expressed protein was determined by detecting the kinase activity of EGFR. A tyrosine kinase substrate, 5 nM pEY (poly Glu-Tyr, Sigma, MO) was added in a 50 μl reaction containing 5 mM MgCl2, 5 mM MnCl2, 100 μM ATP, 25 mM Tris-HCl buffer pH 7.4, 0.05 mM Na3VO4, 0.004% TritonX-100, 2 mM DTT and EDTA-free protease inhibitor (Roche Molecular Biochemicals). This mixture was incubated with shaking at room temperature for 1 or 12 hours to allow phosphorylation of the pEY substrate by the EGFR. Following this incubation 45 μl of this mixture was transferred to a SA—NPT IPR plate coated with biotinylated anti-phosphotyrosine antibody (PY20, Zymed labs, CA) followed by incubation for 30 minutes at room temperature to allow the binding of the phosphorylated pEY substrate to the PY20 coated NPT plate. Following this binding step 50 ng Sulfo-TAG labeled anti-phosphotyrosine in buffer containing 25 mM Tris-HCl buffer pH 7.4, 5 mM MgCl2, 0.05 mM Na3VO4, 0.004% TritonX-100, 2 mM DTT and 0.05% IgG was added followed by incubation at room temperature for 30 mm.
The unbound reagents were removed by one time washing with TT-buffer (25 mM Tris-HCl buffer pH 7.4 and 0.004% Triton), and the TAG label was detected in presence of 150 μl IPR assay buffer (0.4 mM Gly-Gly buffer, pH 7.8, 1 mM EDTA, 0.1 M TPA). The ECL signals were measured using an imaging plate reader.

[2] = biological target: T2, IkBa-24pp (SEQ ID NO: 1) (Homo sapiens, UniProt P25963); assay: Single-well 4-spot assay for multiple peptide-protein interactions; type: binding
T2 construct: two phosphoserines in the DSGLDS motif (chemical modification); purchased New England Peptide, Fitchburg Mass; host or cells: chemical synthesis
T2 sequence (P25963 with tags, fused parts or gaps limits assumed): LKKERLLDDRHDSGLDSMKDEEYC
Description: Four phosphopeptides and their cognate binding proteins (Table 14) were selected for an integrated assay of multiple peptide-protein interaction in 4-spot Multi-Array plates. The IkBa-24pp peptide and its binding protein, βTRCP, are described in Example 10. The remaining peptides are derived from the carboxyl terminus of the EGF receptor. These phosphotyrosine containing peptides are recognized by different adaptor or effecter proteins of the receptor tyrosine kinase signaling pathway.
These four peptides were coupled to BSA carrier protein through cystine residue. After purification on PD-10 gel filtration columns, the peptide-BSA conjugates were then deposited on the assay domains of a 4-spot multi-array IPR plate (i.e., in one of the four exposed regions of working electrode defined by the dielectric layer) with an automated micro-dispensing system (Bio-Dot Dispenser, Bio-Dot, Irvine Calif.). Typically about 120 fmole of peptide:BSA conjugate in 0.25 μl was deposited on each spot of a 4-spot multi-array IPR plate. These plates are dried then used or stored under desiccated conditions. […] Thus, in this assay format, each peptide not only serves as the capture agent for assaying specific interaction with its binding protein, but also at the same time serves as a control for other peptide-protein interaction to be determined in the same well. […]

ECL signal ([1]; +EGFR, reaction time 1 hr): 17,966
ECL signal ([1]; +EGFR, reaction time 12 hr): 39,767
ECL signal ([1]; no EGFR): 1,695
B1: 4419252: IMAGE clone protein: PLCγ (protein)
chain: MAGAASPCANGCGPGAPSDAEVLHLCRSLEVGTVMTLFYSKKSQRPERKTFQVKLETRQITWSRGADKIEGAIDIREIKEIRPGKTSRDFDRYQEDPAFRPDQSHCFVILYGMEFRLKTLSLQATSEDEVNMWIKGLTWLMEDTLQAPTPLQIERWLRKQFYSVDRNREDRISAKDLKNMLSQVNYRVPNMRFLRERLTDLEQRSGDITYGQFAQLYRSLMYSAQKTMDLPFLEASTLRAGERPELCRVSLPEFQQFLLDYQGELWAVDRLQVQEFMLSFLRDPLREIEEPYFFLDEFVTFLFSKENSVWNSQLDAVCPDTMNNPLSHYWISSSHNTYLTGDQFSSESSLEAYARCLRMGCRCIELDCWDGPDGMPVIYHGHTLTTKIKFSDVLHTIKEHAFVASEYPVILSIEDHCSIAQQRNMAQYFKKVLGDTLLTKPVEISADGLPSPNQLKRKILIKHKKLAEGSAYEEVPTSMMYSENDISNSIKNGILYLEDPVNHEWYPHYFVLTSSKIYYSEETSSDQGNEDEEEPKEVSSSTELHSNEKWFHGKLGAGRDGRHIAERLLTEYCIETGAPDGSFLVRESETFVGDYTLSFWRNGKVQHCRIHSRQDAGTPKFFLTDNLVFDSLYDLITHYQQVPLRCNEFEMRLSEPVPQTNAHESKEWYHASLTRAQAEHMLMRVPRDGAFLVRKRNEPNSYAISFRAEGKIKHCRVQQEGQTVMLGNSEFDSLVDLISYYEKHPLYRKMKLRYPINEEALEKIGTAEPDYGALYEGRNPGFYVEANPMPTFKCAVKALFDYKAQREDELTFIKSAIIQNVEKQEGGWWRGDYGGKKQLWFPSNYVEEMVNPVALEPEREHLDENSPLGDLLRGVLDVPACQIAIRPEGKNNRLFVFSISMASVAHWSLDVAADSQEELQDWVKKIREVAQTADARLTEGKIMERRKKIALELSELVVYCRPVPFDEEKIGTERACYRDMSSFPETKAEKYVNKAKGKKFLQYNRLQLSRIYPKGQRLDSSNYDPLPMWICGSQLVALNFQTPDKPMQMNQALFMTGRHCGYVLQPSTMRDEAFDPFDKSSLRGLEPCAISIEVLGARHLPKNGRGIVCPFVEIEVAGAEYDSTKQKTEFVVDNGLNPVWPAKPFHFQISNPEFAFLRFVVYEEDMFSDQNFLAQATFPVKGLKTGYRAVPLKNNYSEDLELASLLIKIDIFPAKENGDLSPFSGTSLRERGSDASGQLFHGRAREGSFESRYQQPFEDFRISQEHLADHFDSRERRAPRRTRVNGDNRL

ECL signal, spot 1 IkBa-24pp ([2]; 4-spot plate): 5040
fold higher ECL signal from spot 1 than with TnT mixtures containing no exogenous DNA ([2]; spot 1 (IkBa-24pp-BSA conjugate)): 100 fold
B2: 4237375: IMAGE clone protein: βTRCP2 (protein)
chain: MEPDSVIEDKTIELMCSVPRSLWLGCANLVESMCALSCLQSMPSVRCLQISNGTSSVIVSRKRPSEGNYQKEKDLCIKYFDQWSESDQVEFVEHLISRMCHYQHGHINSYLKPMLQRDFITALPEQGLDHIAENILSYLDARSLCAAELVCKEWQRVISEGMLWKKLIERMVRTDPLWKGLSERRGWDQYLFKNRPTDGPPNSFYRSLYPKIIQDIETIESNWRCGRHNLQRIQCRSENSKGVYCLQYDDEKIISGLRDNSIKIWDKTSLECLKVLTGHTGSVLCLQYDERVIVTGSSDSTVRVWDVNTGEVLNTLIHHNEAVLHLRFSNGLMVTCSKDRSIAVWDMASATDITLRRVLVGHRAAVNVVDFDDKYIVSASGDRTIKVWSTSTCEFVRTLNGHKRGIACLQYRDRLVVSGSSDNTIRLWDIECGACLRVLEGHEELVRCIRFDNKRIVSGAYDGKIKVWDLQAALDPRAPASTLCLRTLVEHSGRVFRLQFDEFQIISSSHDDTILIWDFLNVPPSAQNETRSPSRTYTYISR
